# From patent US20230295329A1 (published 2023)
# B1: Hu32a-85.IgG4AA (antibody, V domains shown)
# VH: EVQLVQSGAEVKKPGSSVKVSCKASDFTFTDYEIHWVKQAPGHGLEWIGLFDPETGGIVYNQKFKGKATLTADKSTSTAYMEFSSLRSEDTAVYYCTREGYNRDWYFDVWGQGTTVTVSS
# VL: DIVMTQTPLSLPVTPGEPASISCRSSQSLVHSTGNTYLEWYLQKPGQSPQLLIYKVSNRFSGVPDRFSGSGSGTDFTLKISRVEAEDVGVYYCFQGSHVPYTFGGGTKVEIKR
# notes: Full-length IgG4-AA (S228P, F234A, L235A) antibody with kappa light chain
# B2: H005-1 (antibody, V domains shown)
# VH: EVQLVESGGGLVQPGGSLRLSCAASGFTFSSYMMSWVRQAPGKGLEWVATISGGGANTYYPDSVKGRFTISRDNAKNSLYLQMNSLRAEDTAVYYCARQLYYFDYWGQGTTVTVSS
# VL: DIQMTQSPSSLSASVGDRVTITCLASQTIGTWLTWYQQKPGKAPKLLIYTATSLADGVPSRFSGSGSGTDFTLTISSLQPEDFATYYCQQVYSIPWTFGGGTKVEIKR
# B3: Hu23-11.IgG4AA (antibody, V domains shown)
# VH: EVQLVQSGAEVKKPGSSVKVSCKASGGTFSDYEMHWVRQAPGQGLEWMGLIDPETGGTVYNQKFKDRVTITADKSTSTAYMELSSLRSEDTAVYYCARERFSYYGSTSDWYFDVWGQGTTVTVSS
# VL: B1 VL
# notes: Full-length IgG4-AA (S228P, F234A, L235A) antibody with kappa light chain; LCDR1 mutant N28T (Kabat)
# Target: T1, PD-1-His protein (Cat. #10377H08H, Sino Biological) (human, UniProt Q15116 25-167)
# T1 construct: Bought reagent; also called huPD-1-his; hu PD-1-his; not shown: His tag of the bought protein
# T1 sequence (Q15116 25-167 limits assumed): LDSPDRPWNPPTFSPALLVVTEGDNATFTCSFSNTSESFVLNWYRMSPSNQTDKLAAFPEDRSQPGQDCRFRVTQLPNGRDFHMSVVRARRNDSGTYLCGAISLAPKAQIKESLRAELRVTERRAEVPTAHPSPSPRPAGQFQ
# Assay: ELISA, PD-1-His coated, HRP goat anti-human IgG detection
row,OD value MAX,Binder
1,1.26,B1
2,1.21,B2
3,1.46,B3
